# Results: patent US20240287172A1 (SCIRHOM, published 2024)
# T1: hiR2-FL-F588H-T7 (human, UniProt Q6PJF5 1-856)
# T1 sequence: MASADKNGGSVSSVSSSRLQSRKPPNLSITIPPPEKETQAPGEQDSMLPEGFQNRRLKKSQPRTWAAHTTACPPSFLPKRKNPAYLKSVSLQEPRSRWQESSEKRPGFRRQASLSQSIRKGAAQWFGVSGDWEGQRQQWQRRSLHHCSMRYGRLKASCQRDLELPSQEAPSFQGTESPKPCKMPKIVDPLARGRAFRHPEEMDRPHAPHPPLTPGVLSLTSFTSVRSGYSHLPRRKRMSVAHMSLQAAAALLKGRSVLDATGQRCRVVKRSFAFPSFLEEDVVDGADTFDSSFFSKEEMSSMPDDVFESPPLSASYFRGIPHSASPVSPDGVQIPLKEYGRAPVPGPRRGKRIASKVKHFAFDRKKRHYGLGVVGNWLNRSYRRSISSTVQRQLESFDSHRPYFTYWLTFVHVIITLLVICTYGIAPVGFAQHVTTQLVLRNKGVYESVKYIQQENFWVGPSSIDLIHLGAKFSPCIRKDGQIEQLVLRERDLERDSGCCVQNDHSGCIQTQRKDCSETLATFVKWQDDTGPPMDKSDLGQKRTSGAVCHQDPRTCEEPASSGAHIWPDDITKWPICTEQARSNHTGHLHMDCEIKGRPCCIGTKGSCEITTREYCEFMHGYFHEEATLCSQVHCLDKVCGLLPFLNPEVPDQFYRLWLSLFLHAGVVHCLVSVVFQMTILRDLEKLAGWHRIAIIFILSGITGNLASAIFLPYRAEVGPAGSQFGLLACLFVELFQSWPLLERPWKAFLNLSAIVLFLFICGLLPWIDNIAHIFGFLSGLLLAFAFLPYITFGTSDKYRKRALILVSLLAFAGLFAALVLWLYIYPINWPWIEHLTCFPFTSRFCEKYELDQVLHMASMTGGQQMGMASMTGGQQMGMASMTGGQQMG
# B1: antibody 3 (antibody, V domains shown)
# VH: QVTLKESGPGILQPSQTLSLTCSFSGFSLTTFAMGIGWVRQPSGKGLEWLAHIWWDGEKYNNPVLKSRLTISKDTSKNQVFLRIANVDTPDTATYYCARISSIYYIIDNWGQGTSVTVSS
# VL: DIVLTQSPATLSVTPGHSVSLSCRASQSISNNLHWYQKKSHESPRLLIKYVSQSISGIPSRFSGSGSGTDFTLSINSVETEDFGMYFCQQSYNWPLTFGAGTKLELK
# notes: mouse IgG, kappa light chain; also called clone #3; purified antibody 3
# Target: T1, hiR2-FL-F588H-T7
# Assay: FACS, MEF-DKO cells, 3 µg/ml
# Method in brief: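 Binding read by flow cytometry after a PE goat anti-mouse IgG F(ab′)2 secondary (1:100, on ice, 1 h, dark). Before that, immortalized MEF-DKO lines carrying single-mutant hiR2-FL-T7 constructs were incubated 1 h on ice with 3 μg/ml antibody or FACS buffer alone.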
binder,measurement,value
B1,loss of binding vs wild type,≥ 30%
